{"source": "patent US20030008291A1", "about": "(RIKEN, published 2003)", "binders": {"B1": {"name": "UvrB-β (enzyme)", "chain": "RNLVVERGKPYPREVLLERLLELGYQRNDIDLSPGRFRAKGEVLEIFPAYETEPIRVELFGDEVERISQVHPVTGERLRELPGFVLFPA"}}, "key": {"[1]": {"target": "T1, UvrA", "T1 construct": "UvrA was the analyte in the BIAcore experiment", "test": "SPR (BIAcore), His-tagged β domain immobilised on Ni-NTA sensor chip, UvrA injected, with ATP (+ ATP)"}, "[2]": {"target": "T1, UvrA", "test": "SPR (BIAcore), His-tagged β domain immobilised on Ni-NTA sensor chip, UvrA injected, without ATP (- ATP)"}}}
{"binder": "B1", "values": [{"measurement": "Kd", "setting": "[1]", "result": 400, "unit": "nM"}, {"measurement": "koff", "setting": "[1]", "result": 0.06, "unit": "s⁻¹"}, {"measurement": "kon", "setting": "[1]", "result": 150000, "unit": "M⁻¹ s⁻¹"}, {"measurement": "Kd", "setting": "[2]", "result": 2600, "unit": "nM"}, {"measurement": "koff", "setting": "[2]", "result": 0.52, "unit": "s⁻¹"}, {"measurement": "kon", "setting": "[2]", "result": 200000, "unit": "M⁻¹ s⁻¹"}]}
